Measurements taken from patent publication US20160264649A1.

Tests used:
Experiment in all cases: cell-based or functional assay
HIV-1 PVO.4 Env (HIV-1) = molecular target: HIV-1 PVO.4 Env (HIV-1)
[1] = molecular target: HIV-1 REJ04541 Env (HIV-1)
[2] = molecular target: HIV-1 JR-FL Env E168K (HIV-1)
HIV-1 CAAN Env (HIV-1) = molecular target: HIV-1 CAAN Env (HIV-1)
HIV-1 DU156 Env (HIV-1) = molecular target: HIV-1 DU156 Env (HIV-1)
HIV-1 CAP45 Env (HIV-1) = molecular target: HIV-1 CAP45 Env (HIV-1)
[3] = molecular target: MuLV envelope (control pseudovirus)
HIV-1 Du172 Env (HIV-1) = molecular target: HIV-1 Du172 Env (HIV-1)
HIV-1 DU422 Env (HIV-1) = molecular target: HIV-1 DU422 Env (HIV-1)
HIV-1 ZM214 Env (HIV-1) = molecular target: HIV-1 ZM214 Env (HIV-1)
HIV-1 AC10 Env (HIV-1) = molecular target: HIV-1 AC10 Env (HIV-1)
HIV-1 TR0.11 Env (HIV-1) = molecular target: HIV-1 TR0.11 Env (HIV-1)
HIV-1 ZM233 Env (HIV-1) = molecular target: HIV-1 ZM233 Env (HIV-1)
[4] = molecular target: HIV-1 THRO.18 Env (HIV-1)
HIV-1 ZM249 Env (HIV-1) = molecular target: HIV-1 ZM249 Env (HIV-1)
[5] = molecular target: HIV-1 Env of isolate 92WR026 (subtype A) (HIV-1)
[6] = molecular target: HIV-1 Env of isolate MGRM-Chronic-B-003 (subtype B) (HIV-1)
[7] = molecular target: HIV-1 Env of isolate MGRM-Chronic-B-001 (subtype B) (HIV-1)
[8] = molecular target: HIV-1 Env of isolate MGRM-F1-008 (subtype F) (HIV-1)
[9] = molecular target: HIV-1 Env of isolate MGRM-F1-014 (subtype F) (HIV-1)
[10] = molecular target: HIV-1 Env of isolate 92 BR 020 (subtype B) (HIV-1)
[11] = molecular target: HIV-1 Env of isolate MGRM-D-029 (subtype D) (HIV-1)

1443_C16 (PG16) (TCN-116) (antibody), sequence (VH): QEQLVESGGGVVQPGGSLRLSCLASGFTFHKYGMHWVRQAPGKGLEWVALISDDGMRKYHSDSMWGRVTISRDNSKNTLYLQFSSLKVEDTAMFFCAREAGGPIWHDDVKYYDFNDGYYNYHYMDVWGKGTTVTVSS
1443_C16 (PG16) (TCN-116) (antibody), sequence (VL): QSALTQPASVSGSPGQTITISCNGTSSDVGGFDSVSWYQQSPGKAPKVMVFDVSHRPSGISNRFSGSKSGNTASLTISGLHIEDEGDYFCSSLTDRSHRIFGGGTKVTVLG

In the case of 1443_C16 (PG16) (TCN-116) (antibody), the IC50, TZM-bl pseudovirus neutralization (HIV-1 PVO.4 Env (HIV-1)) is reported as 12.3 mg/L, the IC50, TZM-bl pseudovirus neutralization [1] is reported as < 0.01 mg/L and the IC50, TZM-bl pseudovirus neutralization [2] is reported as 0.006 mg/L. The IC50, TZM-bl pseudovirus neutralization (HIV-1 CAAN Env (HIV-1)) was 6.37 mg/L, the IC50, TZM-bl pseudovirus neutralization (HIV-1 DU156 Env (HIV-1)) was < 0.01 mg/L and the IC50, TZM-bl pseudovirus neutralization (HIV-1 CAP45 Env (HIV-1)) was < 0.01 mg/L. The IC50, TZM-bl pseudovirus neutralization [3] was > 25 mg/L, the IC50, TZM-bl pseudovirus neutralization (HIV-1 Du172 Env (HIV-1)) was < 0.01 mg/L and the IC50, TZM-bl pseudovirus neutralization (HIV-1 DU422 Env (HIV-1)) was 0.59 mg/L. For the same substance, the IC50, TZM-bl pseudovirus neutralization (HIV-1 ZM214 Env (HIV-1)) was > 25 mg/L, the IC50, TZM-bl pseudovirus neutralization (HIV-1 AC10 Env (HIV-1)) was < 0.01 mg/L and the IC50, TZM-bl pseudovirus neutralization (HIV-1 TR0.11 Env (HIV-1)) was 3.61 mg/L. For the same substance, the IC50, TZM-bl pseudovirus neutralization (HIV-1 ZM233 Env (HIV-1)) was < 0.01 mg/L, the IC50, TZM-bl pseudovirus neutralization [4] was 2.19 mg/L and the IC50, TZM-bl pseudovirus neutralization (HIV-1 ZM249 Env (HIV-1)) was < 0.01 mg/L.

1496_C09 (PG9) (TCN-109) (antibody) gave an IC50 (pseudovirus neutralization) [5] of 0.164 mg/L.

Substance PGV04 (antibody) has an IC50 [6] of 0.258 mg/L, an IC50 [7] of 0.048 mg/L and an IC50 (pseudovirus neutralization) [5] of 0.14 mg/L. It also gave an IC50 (pseudovirus neutralization) [8] of 1.03 mg/L, an IC50 (pseudovirus neutralization) [9] of 0.02 mg/L and an IC50 [10] of 0.25 mg/L. The IC50 (pseudovirus neutralization) [11] was 1.56 mg/L.

With VRC01 (antibody) the IC50 [6] was 0.1 mg/L, the IC50 [7] was 0.066 mg/L and the IC50 (pseudovirus neutralization) [8] was 1.11 mg/L. For the same substance, the IC50 (pseudovirus neutralization) [9] was 0.056 mg/L, the IC50 [10] was 0.29 mg/L and the IC50 (pseudovirus neutralization) [11] was 3.22 mg/L.
